Data published in patent US10280218B2, “Antibodies binding to BMP4, and uses thereof” (ACADEMISCH MEDISCH CENTRUM, priority 2014, dated 2019).

Tests used:
BMP4 = target: T1, BMP4 (Homo sapiens, UniProt P12644); experiment: Surface plasmon resonance (SPR), BMPs injected over VHH-coated chip; format: binding; parameters: purchased R&D systems; ka (BMP4): unit not given here; details: molecule coupled to chip
T1 sequence (P12644 293-408): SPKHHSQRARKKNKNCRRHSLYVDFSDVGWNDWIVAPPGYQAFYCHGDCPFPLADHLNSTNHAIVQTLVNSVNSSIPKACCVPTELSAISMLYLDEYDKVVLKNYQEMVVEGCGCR
Protocol: (§1) To confirm their BMP specificities and to elucidate their binding affinities, our VHHs were subjected to surface plasmon resonance (SPR) analysis. In a first set of experiments, controls and VHHs (either as monomers or dimers) were coupled to SPR chips and the measurement of BMP affinities was obtained by injecting the different BMPs to the plate.
(§2) Serial dilutions (2.0-10 μg/ml) of purified VHHs were spotted on an amine-specific SensEye gold-film gel-type SPRchip (Ssens), using a Continuous Flow Microspotter (Wasatch Microfluidics, Salt Lake City, Utah, United States) as described (Lokate et al., 2007). BMP binding was analyzed on an IBIS MX96 (IBIS Technologies, Enschede, The Netherlands) instrument by performing injections with dilution series (0.05-2.0 μg/ml) of recombinant BMPs on the VHH-coated chip. In each injection, BMPs were injected and incubated for 8 min, followed by 15 min thorough washing with binding buffer (PBS+0.05% Tween20+0.05% sodium azide) to measure dissociation. Epitope binning was done by injecting VHH dilutions (2.0 μg/ml) over the chip, immediately after the dissociation step. Injections with blank binding buffer were used as reference. After each concatenated injection, the chip was regenerated with 10 mM glycine-HCl, pH 2.0. Experimental data were processed with SPRintX software (IBIS Technologies) and kinetic parameters were determined using Scrubber2 software (BioLogic Software, Campbell, ACT, Australia). Binding constants were obtained by global fitting to a one-site binding model.

BMP6 [1] = target: T2, BMP6 (Homo sapiens, UniProt P22004); experiment: as above; details: molecule coupled to chip; unit inferred; — not defined there (Table 1: No binding detected)
T2 sequence (P22004 375-513): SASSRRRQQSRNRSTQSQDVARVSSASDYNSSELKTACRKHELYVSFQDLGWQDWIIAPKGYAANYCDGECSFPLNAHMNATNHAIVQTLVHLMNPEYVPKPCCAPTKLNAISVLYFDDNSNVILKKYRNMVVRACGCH
Protocol: as §1, §2

BMP6 [2] = target: T2, BMP6; experiment: BMP activity luciferase reporter assay (BRE-luciferase, ID1 promoter) in C2C12 cells; format: cell-based, mouse
Protocol: One of the most studied BMP target genes is the Inhibitor of Differentiation 1 (ID1). This is an immediate early gene that is activated by binding of the phosphorylated SMADs to its promoter region (López-Rovira et al., 2002). Thus, we employed the BMP-responsive C2C12 cells, which are stably transfected with the BRE-luciferase vector containing the BMP-Responsive-Element (the mouse ID1 promoter) cloned into the pGL3 luciferase vector (Zilberberg 2007). […] C2C12 cells were treated with the different BMPs with or without our VHHs or human Noggin at a concentration of 5 μg/ml. Luciferase activity was measured after 16 hours incubation. Most of the transcriptional data is in concordance with the results obtained with the phosphorylation of SMAD1/5/8.
C2C12 cells were plated in 96-well plates at 5×10^3 cells/well and cells were allowed to attach overnight. 100 μl of DMEM with 0.1% BSA were added in each well. VHH antibodies and human Fc-Noggin at the indicated concentrations were added at the same time. Wells with unstimulated cells were added as controls. Cells were treated in triplicate with the BMPs at the indicated concentrations for 16 hours. Luciferase activity was measured by adding 100 μl of luciferase substrate solution from the Bright-Glo™ Luciferase Assay System (Promega Benelux, Leiden, The Netherlands). After 3 minutes of incubation, luciferase activity was measured with Synergy HT Multi-Mode Microplate Reader (Biotek, Winooski, Vt., United States). Luciferase values were normalized to background activity (activity of wells with no cells) and represented as ratio to the activity of BMP-stimulated cells.
C2C12 cells were cultured in 96-well plates at 5×10^3 cells/well. […]

BMP2 = target: T3, BMP2 (Homo sapiens, UniProt P12643); experiment: Surface plasmon resonance (SPR), BMPs injected over VHH-coated chip; parameters: ka (BMP2): unit not given here; details: molecule coupled to chip, —: No binding detected
T3 sequence (P12643 283-396): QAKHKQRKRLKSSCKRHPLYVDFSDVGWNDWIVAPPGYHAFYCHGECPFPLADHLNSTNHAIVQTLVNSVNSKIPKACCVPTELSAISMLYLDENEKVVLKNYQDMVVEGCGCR
Protocol: In a first set of experiments, controls and VHHs (either as monomers or dimers) were coupled to SPR chips and the measurement of BMP affinities was obtained by injecting the different BMPs to the plate.
as §2

B1: hNoggin (protein)
chain: QHYLHIRPAPSDNLPLVDLIEHPDPIFDPKEKDLNETLLRSLLGGHYDPGFMATSPPEDRPGGGGGAAGGAEDLAELDQLLRQRPSGAMPSEIKGLEFSEGLAQGKKQRLSKKLRRKLQMWLWSQTFCPVLYAWNDLGSRFWPRYVKVGSCFSKRSCSVPEGMVCKPSKSVHLTVLRWRCQRRGGQRCGWIPIQYPIISECKCSC
kd (BMP4) (BMP4): 3.9 10^−5 sec^−1
Kd (BMP6 [1]): 50 nM
inhibition of BMP-6 signals, comparison of inhibitors (BMP6 [2]; 50 ng/ml hBMP6, 16 h, 500 ng/ml): inhibited
kd (BMP2) (BMP2): 16.2 10^−5 sec^−1

B2: C8E7: E7 linked to C8, hetero-dimer VHH bihead (protein)
chain: EVQLVESGGGLVQAGGSLRLSCAASGRTFRINDMGWYRQAPGKSRDMVARITSGGNTNYADSVKGRFTISRDNAKNTVYLQMNSLKPEDTAVYYCNADGLRFDSTRYRPFDSWGQGTQVTVSSGGGGSGGGGSEVQLVESGGGLVQAGGSLRLSCAASGSIRGFVAMAWYRQAPGKQREWVATVTNGGTLYGDSVKGRFTGSRDNAKNTVYLQMNSLKPEDTAVYYCALRQIGASGYDYWGQGTQVTVSS
ka (BMP4) (BMP4): 34.6
kd (BMP4) (BMP4): 3.4 10^−5 sec^−1
Kd (BMP6 [1]): 50 nM
inhibition of BMP6-mediated transcriptional activation by dimers (BMP6 [2]; BMP6 50 ng/ml, 16 hours, increasing concentrations): unable to impair
ka (BMP2) (BMP2): 19.4
kd (BMP2) (BMP2): 10.7 10^−5 sec^−1
